# Experimental data published in the DeepSol protein solubility set.
# Experiment: soluble on expression in E. coli; label from the status in PepcDB or PDB records
row,Sequence,soluble on expression in E. coli
1,MSSAQVNGISKRLIVESPNVKLEDGVLESRFTYRKNHFEHRADGLHVTPKEHDYSFKTVLKPRKTGLLLVGLGGNNGSTAVGSIFANQYAMTWRTKEGHSQANYFGSVTQTATVHLGYDSATQNQIFVPFKDIVPILSPNDLIISGWDISDSNLYEAMGRAKVFEPELQEKLRPFMEPIVPLPSIYYPDFIASNQGDRANNVIPGDNKLEHLEHIRADIRKFKQEHELECVIVLWTANTERYTDVRQGLNATADEIMESIRVNEDEVSPSNIFAVASILEGAHYINGSPQNTLVPGLIELAERHKVFVGGDDFKSGQTKFKSAFVDFLVSSGMKPESIVSYNHLGNNDGKNLSEARQFRSKEISKSSVVDDMVKSNQILFPDAKNPDHCVVIKYVPYVADSKRAMDEYICSIFMGGKQTFVVHNTCEDSLLASPLIYDLAILTELASRVSYKVDDEYKPFHSVLSILSLLLKAPVVPPGTPISNAFMRQFSTLTKLVTALAGFPSDTDMQIEFFTQLPAAKSKSQ,not soluble
2,MAHHHHHHMSDAPHRQSSTPASSFLPPEPLCVADILSELLPFLLAAPQPRDGCPPSSSAQEPAESPVLLIPPTVASEHRVQVSIRGRRYETALEVALTYSLFFFVFFHWPFSEEDESSDAAGCASDVAHVKRAPRSVGDAVMAAASARDLPKEAHLLRHYTRVVEPVLRVFLDHWAAPLDAAAAAQGEGESAARAETAEAGDAARLPLLPPLPHPVRIAYDASTRVWKFEFAARLTAGAAAEARSGRQCDDSSAAVSLAAADGCAAVATDKLNNSPFLLLQSEYMGLLLVFLRRCAKVRAERRAAGEGAAACALAPYPSLPIRWEEMNYDEQLSVVQLIRRFGVVSLARTYTRPTAPETTSLYIGEEAAAATARVKVEGDACSLRARASESMGKQQQKIQQAASVAVDTAEVVKKERCINEDDFDGLVLSAKGCARCGMAEHSTEECHF,soluble
3,MNVTLLVADAVWSNIESTGSVTEEQLSILQLLFGKNLEKATRIIDKRGVKKISGLPSGRSIFQVVGESQKREEYLCFPGDYCGCYSFFYDVVSRGEHQCCKHQLAARLASSLGTYNEIEVSDDHLALMLSKI,not soluble
4,MAHHHHHHMTEPVRILVRRDEITVDSIMQYFVAVDEEKNKFETLCDLYDTLTIAHAVIFCNTRKKVEQLAKKMRKEKFSVSCMHGDMPQAERDEIMRNFREGKSRVLISTDLWSRGIDVEQVSLVLNYDLPFSREQYIHRIGRTGRMGRKGLAISFVKHDELRLLRDVEQFYATQIEELPANIADQF,not soluble
5,MWQNFYLTTLKLSQYTQEEKPILPADNMDPRALASVHAWEHGDFMCKGYIQSRLSDPLYNVYSNVETSNELWDSLDKKYQTKDAGSQKYAAAKFLDYKMVDSRPMMVQVEELTCLFHDI,soluble
6,MASPLYLHSSDGPENLITNVQLKGENYEDWAKHVRNASRTKQKLGFIDGTLEKPTKEDDMEQ,not soluble
7,MAHHHHHHMVLYIIGLGLGDEKDITIKGKELIEKSDVVYLETYTSILFVSKDVLEETYKKSIEEVDRDFAEENCDKILDEAKNKKVSFLVVGDPLCATTHHDIILRAKKKNIDVEIIHNTSIISAIGECGMQLYNFGQIVSIPYFEDNYKPTSYYDKIYINLKNNFHTLCLLDIKVKERTVENIMRNKKIYEPPRFMTINDSIEQLLYCEHIHKKNIITKNTLGIAIIQIGTDNQQIISGDLLTLKDISYNKPLHSLIICAPTLHDIEKEYFDLYHYNNMKK,not soluble
8,MGSDKIHHHHHHMTTASTVYHYCGAESFFSIVRNGRLWVSDARKTNDRRELEWFKDLALKHIAKSAATGDKMLSDLHLALKVRFELLEDVSDYYVCCFSEKKDSVPQWVAYADRGTGFAIGFDVNALRKKIGAALLSPSYAPVPFGVGANGWGFGPVAYAEEGVANAQIDDLMSTIVSAPFVGEDVTDSARDHIDRVCAFCKHPDFQTEHEWRIVCNTSFLKKNAGLTGTDMLPDTKWRKGGYGLTPYRETVDVLDCVKEVIVGPGNADRDSIEYVKQFLRFSGVKAEVFLSVSPYR,not soluble
9,MTLSFRVNPEYAAMSEIVPGLFICGVSALSKDEMKKHKITHIINATTEVPNLRSLGDIQRTKLWLEDTPQTYIYPHLELQSDQIQALIADGGKVLVHCVAGVSRSASICLAFLLKYRCRNLREAYHLMKSKRSMVRPNLGFWRQLIAYEQNVKENAGSVRLVRDEAQPEQLLPDVYLNIAIPARPASPEQDPNMIPDEPRERRNSGFKSKFRPVLEPVMEMAEAVC,not soluble
